Experiments:
[1] = assay type: binding, Saccharomyces cerevisiae
Procedure, shortened: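 Full-length Taxus cytochrome P450 clones in pYeDP60 were expressed in yeast, with induction by galactose (10% final) for about 24 h. Whole cells were treated with CO, and CO-difference spectra were recorded spectrophotometrically against untreated cells.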

[2] = In vivo assay of yeast cells expressing recombinant oxygenases, radio-HPLC, substrate taxadiene; assay type: cell-based, Saccharomyces cerevisiae; conditions: assayed with Taxadiene; graded symbols, key not given
[3] = In vitro enzyme assay for taxoid oxygenase activity (baculovirus-Spodoptera expressed enzyme), substrate taxadiene; assay type: biochemical, Spodoptera frugiperda; conditions: 30 μM substrate, 32° C., 12 hours
Experimental: The standard enzyme assay for assessing oxygenase activity of the recombinant cytochrome P450 employed the following conditions: 25 mM HEPES buffer, pH 7.5, 400 μM NADPH, 300 μg protein and 30 μM substrate (taxadiene, taxadienol, or taxadienyl acetate) in a total volume of 1 mL. Samples were incubated at 32° C. for 12 hours, after which 1 mL of saturated NaCl solution was added to the reaction mixture, followed by extraction of the product with 2 mL of hexane/ethyl acetate (4:1, v/v). […]
For the functional characterization of clone F16, the recombinant baculovirus carrying the cytochrome P450 clone F16 ORF was coexpressed with a recombinant baculovirus carrying the Taxus NADPH:cytochrome P450 reductase gene. […] The viral titers were determined according to the End-Point Dilution method (O'Reilly et al., Baculovirus Expression Vectors, A Laboratory Manual, New York, N.Y., Freeman and Company, 1992). […]

[4] = In vitro enzyme assay for taxoid oxygenase activity (baculovirus-Spodoptera expressed enzyme), substrate taxadienol; assay type: biochemical, Spodoptera frugiperda
Experimental: The standard enzyme assay for assessing oxygenase activity of the recombinant cytochrome P450 employed the following conditions: 25 mM HEPES buffer, pH 7.5, 400 μM NADPH, 300 μg protein and 30 μM substrate (taxadiene, taxadienol, or taxadienyl acetate) in a total volume of 1 mL. Samples were incubated at 32° C. for 12 hours, after which 1 mL of saturated NaCl solution was added to the reaction mixture, followed by extraction of the product with 2 mL of hexane/ethyl acetate (4:1, v/v). The extracts were dried and dissolved in acetonitrile for product analysis by radio-HPLC [column: Alltech Econosil C18 5 μm particle size (250 mm×4.6 mm): solvent system A: 0.01% (v/v) H3PO4, 2% acetonitrile, 97.99% H2O; solvent system B: 0.01% H3PO4, 99.99 acetonitrile; gradient: 0–5 minutes, 100% A; 5–15 minutes, 0–50% B; 15–55 minutes, 50–100% B; 55–65 minutes, 100% B; 65–70 minu A; 70–75 minutes, 100% A; flow rate 1 mL/minute; for detection, a radio-chromatography detector (Flow-One®-Beta Series A-100, Radiomatic) was used].
For the functional characterization of clone F16, the recombinant baculovirus carrying the cytochrome P450 clone F16 ORF was coexpressed with a recombinant baculovirus carrying the Taxus NADPH:cytochrome P450 reductase gene. To the insect cell suspension, the two recombinant baculoviruses were added at a multiplicity of infection of 1–5. The viral titers were determined according to the End-Point Dilution method (O'Reilly et al., Baculovirus Expression Vectors, A Laboratory Manual, New York, N.Y., Freeman and Company, 1992). For infection, the cells were incubated for 1 hour at 28° C. and 80 rpm. The cell culture volume was brought to 50 mL with standard cell culture medium, and hemin (Sigma) was added to a final concentration of 2 μg/mL. The infected cells were incubated for 48 hours in a gyratory shaker at 28° C. and 140 rpm. The infected insect cells were harvested from the cell culture medium by centrifugation as described above, and washed twice with PBS (50 mM KH2PO4, pH 7.5, 0.9% NaCl). […]

B1: clone F16: Taxus cuspidata cytochrome P450 taxane 9α-hydroxylase, full-length clone, SEQ ID NO: 82 (nt) / 88 (aa) (protein, listed as Taxus cuspidata)
chain: MDALKQLEVSPSILFVTLAVMAGIILFFRSKRHSSVKLPPGNLGFPLVGETLQFVRSLGSSTPQQFIEERMSKFGDVFKTSIIGHPTVVLCGPAGNRLVLSNENKLVQMSWPSSMMKLIGEDCLGGKTGEQHRIVRAALTRFLGPQALQNHFAKMSSGIQRHINEKWKGKDEATVLPLVKDLVFSVASRLFFGITEEHLQEQLHNLLEVILVGSFSVPLNIPGFSYHKAIQARATLADIMTHLIEKRRNELRAGTASENQDLLSVLLTFTDERGNSLADKEILDNFSMLLHGSYDSTNSPLTMLIKVLASHPESYEKVAQEQFGILSTKMEGEEIAWKDLKEMKYSWQVVQETLRMYPPIFGTFRKAITDIHYNGYTIPKGWKLLWTTYSTQTKEEYFKDADQFKPSRFEEEGKHVTPYTYLPFGGGMRVCPGWEFAKMETLLFLHHFVKAFSGLKAIDPNEKLSGKPLPPLPVNGLPIKLYSRS
[1]
  CO diff. spec.: +++
[2]
  product identified HPLC peak: No
[3]
  conversion of taxadiene to an oxygenated product: not converted detectably
[4]; 30 μM substrate, 32° C., 12 hours, GC-MS
  conversion of taxa-4(20),11(12)-dien-5α-ol: converted most efficiently to a diol product
[4]; baculovirus-Spodoptera expression
  enzyme function assigned from screening: cytochrome P450 taxane-9α-hydroxylase
[4]; preparative incubation, 1H- and 13C-NMR
  identity of the product of the oxygenase reaction with taxadienol: taxa-4(20),11(12)-dien-5α,9α-diol

Source: patent US7005283B2, “Cytochrome P450 oxygenases and their uses” (Washington State University Research Foundation, priority 1999, dated 2006)
